Measurements as given in publication PMC9482650, “Quantitative fragmentomics allow affinity mapping of interactomes” (Nature Communications, 2022).

T1: FRMPD1, Q5SYB0
T1 sequence (Q5SYB0 52-145, limits assumed, looked up): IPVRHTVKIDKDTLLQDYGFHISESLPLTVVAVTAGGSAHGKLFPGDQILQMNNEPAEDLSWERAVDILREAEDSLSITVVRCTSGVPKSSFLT

T2: GRIP1_4, Q9Y3R0
T2 sequence (Q9Y3R0 467-571, limits assumed, looked up): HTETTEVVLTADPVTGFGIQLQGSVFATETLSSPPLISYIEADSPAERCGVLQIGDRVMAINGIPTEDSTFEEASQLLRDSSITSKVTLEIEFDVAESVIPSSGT

T3: HTRA4, P83105
T3 sequence (P83105 378-476, limits assumed, looked up): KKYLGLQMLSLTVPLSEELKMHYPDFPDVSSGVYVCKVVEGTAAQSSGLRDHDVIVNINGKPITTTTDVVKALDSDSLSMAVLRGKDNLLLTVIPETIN

T4: MPDZ_10, O75970
T4 sequence (O75970 1624-1722, limits assumed, looked up): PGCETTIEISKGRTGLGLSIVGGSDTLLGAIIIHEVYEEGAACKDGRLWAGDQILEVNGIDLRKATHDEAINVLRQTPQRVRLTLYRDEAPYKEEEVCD

T5: PARD3B_1, Q8TEW8
T5 sequence (Q8TEW8 196-299, limits assumed, looked up): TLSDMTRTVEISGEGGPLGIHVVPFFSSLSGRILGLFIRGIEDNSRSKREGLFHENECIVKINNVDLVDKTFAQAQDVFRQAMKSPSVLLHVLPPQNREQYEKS

T6: PDZD7_3, Q9H5P4
T6 sequence (Q9H5P4 857-944, limits assumed, looked up): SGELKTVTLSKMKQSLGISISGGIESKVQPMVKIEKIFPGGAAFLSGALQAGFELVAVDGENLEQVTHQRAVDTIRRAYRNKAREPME

T7: SNTB1, Q13884
T7 sequence (Q13884 107-205, limits assumed, looked up): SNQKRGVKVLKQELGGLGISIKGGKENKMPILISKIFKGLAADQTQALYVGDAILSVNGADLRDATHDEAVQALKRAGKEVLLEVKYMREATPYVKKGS

T8: SNTG1, Q9NSN8
T8 sequence (Q9NSN8 52-150, limits assumed, looked up): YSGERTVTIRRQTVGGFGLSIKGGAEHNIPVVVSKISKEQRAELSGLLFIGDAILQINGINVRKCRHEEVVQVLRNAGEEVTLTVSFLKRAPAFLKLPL

T9: SNTG2, Q9NY99
T9 sequence (Q9NY99 68-166, limits assumed, looked up): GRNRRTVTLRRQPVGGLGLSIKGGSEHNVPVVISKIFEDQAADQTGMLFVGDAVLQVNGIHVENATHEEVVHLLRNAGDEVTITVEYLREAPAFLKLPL

T10: SYNJ2BP, P57105
T10 sequence (P57105 8-110, limits assumed, looked up): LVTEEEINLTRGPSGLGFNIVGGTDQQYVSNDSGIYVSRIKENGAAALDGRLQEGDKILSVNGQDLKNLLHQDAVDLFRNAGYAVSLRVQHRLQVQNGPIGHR

T11: TIAM2, Q8IVF5
T11 sequence (Q8IVF5 885-986, limits assumed, looked up): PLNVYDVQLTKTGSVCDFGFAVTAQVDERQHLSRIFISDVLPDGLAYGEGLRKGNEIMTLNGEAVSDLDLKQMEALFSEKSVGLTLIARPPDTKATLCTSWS

T12: TJP3_3, O95049
T12 sequence (O95049 375-456, limits assumed, looked up): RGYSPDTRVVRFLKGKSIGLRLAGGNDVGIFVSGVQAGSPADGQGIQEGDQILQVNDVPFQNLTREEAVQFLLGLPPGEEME


What was measured:
Experiment in all cases: holdup assay
Parameters in all cases: key: below the threshold = too weak to quantify, mostly under pKd 3.1 to 4
Conditions in all cases: plain residues with an end cap or a label only (N-terminal biotin on a linker: ttds)
DLG4_1, P78352 = biological target: DLG4_1, P78352
DLG4_1, P78352, sequence (P78352 62-152): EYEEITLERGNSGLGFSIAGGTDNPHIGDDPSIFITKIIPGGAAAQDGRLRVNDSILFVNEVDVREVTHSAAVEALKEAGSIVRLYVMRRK

DLG4_2, P78352 = biological target: DLG4_2, P78352
DLG4_2, P78352, sequence (P78352 155-259): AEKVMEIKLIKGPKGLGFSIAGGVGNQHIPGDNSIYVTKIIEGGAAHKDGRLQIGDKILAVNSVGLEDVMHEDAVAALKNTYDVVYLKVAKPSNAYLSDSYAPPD

DLG4_3, P78352 = biological target: DLG4_3, P78352
DLG4_3, P78352, sequence (P78352 306-403): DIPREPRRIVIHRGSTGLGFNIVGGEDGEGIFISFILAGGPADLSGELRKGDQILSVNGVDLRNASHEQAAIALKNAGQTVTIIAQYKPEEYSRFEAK

FRMPD1, Q5SYB0 = biological target: T1, FRMPD1, Q5SYB0
FRMPD2_1, Q68DX3 = biological target: FRMPD2_1, Q68DX3
FRMPD2_1, Q68DX3, sequence (Q68DX3 770-861): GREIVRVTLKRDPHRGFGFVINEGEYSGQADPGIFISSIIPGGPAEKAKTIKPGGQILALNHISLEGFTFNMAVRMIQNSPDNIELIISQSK

GRASP, Q7Z6J2 = biological target: GRASP, Q7Z6J2
GRASP, Q7Z6J2, sequence (Q7Z6J2 96-193): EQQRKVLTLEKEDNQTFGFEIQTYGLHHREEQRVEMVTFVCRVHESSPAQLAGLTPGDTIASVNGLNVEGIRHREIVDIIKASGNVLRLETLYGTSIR

GRID2IP_1, A4D2P6 = biological target: GRID2IP_1, A4D2P6
GRID2IP_1, A4D2P6, sequence (A4D2P6 1-87): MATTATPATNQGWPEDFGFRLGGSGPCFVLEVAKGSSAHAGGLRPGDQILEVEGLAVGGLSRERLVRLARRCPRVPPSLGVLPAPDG

GRIP1_4, Q9Y3R0 = biological target: T2, GRIP1_4, Q9Y3R0
HTRA4, P83105 = biological target: T3, HTRA4, P83105
LAP2, Q96RT1 = biological target: LAP2, Q96RT1
LAP2, Q96RT1, sequence (Q96RT1 other isoform, or with tags, fused parts or gaps): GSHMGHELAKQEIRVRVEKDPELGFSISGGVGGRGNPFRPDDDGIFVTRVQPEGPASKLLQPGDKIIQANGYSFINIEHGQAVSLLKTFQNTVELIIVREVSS

LNX1_3, Q8TBB1 = biological target: LNX1_3, Q8TBB1
LNX1_3, Q8TBB1, sequence (Q8TBB1 500-596): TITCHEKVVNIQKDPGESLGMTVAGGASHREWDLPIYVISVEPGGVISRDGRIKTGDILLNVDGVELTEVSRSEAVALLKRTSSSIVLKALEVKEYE

MAGI1_2, Q96QZ7 = biological target: MAGI1_2, Q96QZ7
MAGI1_2, Q96QZ7, sequence (Q96QZ7 456-580): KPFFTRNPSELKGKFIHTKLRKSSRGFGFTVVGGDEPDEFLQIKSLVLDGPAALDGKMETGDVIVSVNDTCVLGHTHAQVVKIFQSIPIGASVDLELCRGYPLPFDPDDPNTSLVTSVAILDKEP

MAGI2_2, Q86UL8 = biological target: MAGI2_2, Q86UL8
MAGI2_2, Q86UL8, sequence (Q86UL8 410-522): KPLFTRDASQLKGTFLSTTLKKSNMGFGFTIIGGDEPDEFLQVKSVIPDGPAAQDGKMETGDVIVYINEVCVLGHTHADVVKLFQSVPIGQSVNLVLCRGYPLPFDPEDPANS

MAGI2_4, Q86UL8 = biological target: MAGI2_4, Q86UL8
MAGI2_4, Q86UL8, sequence (Q86UL8 772-865): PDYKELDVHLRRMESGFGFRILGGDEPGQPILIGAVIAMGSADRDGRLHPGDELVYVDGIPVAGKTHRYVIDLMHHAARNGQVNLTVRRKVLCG

MPDZ_10, O75970 = biological target: T4, MPDZ_10, O75970
NHERF4_4, Q86UT5 = biological target: NHERF4_4, Q86UT5
NHERF4_4, Q86UT5, sequence (Q86UT5 464-550): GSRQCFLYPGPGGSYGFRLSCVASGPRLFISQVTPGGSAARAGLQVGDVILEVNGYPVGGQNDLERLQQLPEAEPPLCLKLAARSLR

PARD3B_1, Q8TEW8 = biological target: T5, PARD3B_1, Q8TEW8
PDZD7_3, Q9H5P4 = biological target: T6, PDZD7_3, Q9H5P4
SCRIB_1, Q14160 = biological target: SCRIB_1, Q14160
SCRIB_1, Q14160, sequence (Q14160 718-814): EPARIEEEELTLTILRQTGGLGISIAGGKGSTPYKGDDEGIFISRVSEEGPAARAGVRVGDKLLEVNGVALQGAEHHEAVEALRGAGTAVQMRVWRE

SNTB1, Q13884 = biological target: T7, SNTB1, Q13884
SNTG1, Q9NSN8 = biological target: T8, SNTG1, Q9NSN8
SNTG2, Q9NY99 = biological target: T9, SNTG2, Q9NY99
SNX27, Q96L92 = biological target: SNX27, Q96L92
SYNJ2BP, P57105 = biological target: T10, SYNJ2BP, P57105
TIAM2, Q8IVF5 = biological target: T11, TIAM2, Q8IVF5
TJP3_3, O95049 = biological target: T12, TJP3_3, O95049

Row | pKd (DLG4_1, P78352) | pKd (DLG4_2, P78352) | pKd (DLG4_3, P78352) | pKd (FRMPD1, Q5SYB0) | pKd (FRMPD2_1, Q68DX3) | pKd (GRASP, Q7Z6J2) | pKd (GRID2IP_1, A4D2P6) | pKd (GRIP1_4, Q9Y3R0) | pKd (HTRA4, P83105) | pKd (LAP2, Q96RT1) | pKd (LNX1_3, Q8TBB1) | pKd (MAGI1_2, Q96QZ7) | pKd (MAGI2_2, Q86UL8) | pKd (MAGI2_4, Q86UL8) | pKd (MPDZ_10, O75970) | pKd (NHERF4_4, Q86UT5) | pKd (PARD3B_1, Q8TEW8) | pKd (PDZD7_3, Q9H5P4) | pKd (SCRIB_1, Q14160) | pKd (SNTB1, Q13884) | Binder | further results
1 | 4.23 | 4.23 | 3.85 | below the threshold | 3.84 | 4.74 | 3.48 | below the threshold | below the threshold | 4.57 | below the threshold | 3.86 | 4.13 | 3.54 | below the threshold | 4.24 | 3.94 | 5.27 | 6.07 | 5.05 | STLTIFETAL [ABCC4, O15439] | pKd (SNTG1, Q9NSN8): 4.89; pKd (SNTG2, Q9NY99): 4.97; pKd (SNX27, Q96L92): 5.85; pKd (SYNJ2BP, P57105): 5.56; pKd (TIAM2, Q8IVF5): below the threshold; pKd (TJP3_3, O95049): below the threshold
2 | below the threshold | 3.62 | below the threshold | below the threshold | below the threshold | below the threshold | below the threshold | below the threshold | below the threshold | 3.75 | below the threshold | 4.5 | below the threshold | below the threshold | below the threshold | below the threshold | below the threshold | 4.47 | 4.57 | 4.49 | GQDSREETQL [KCNT2, Q6UVM3] | pKd (SNTG1, Q9NSN8): 3.73; pKd (SNTG2, Q9NY99): 4.39; pKd (SNX27, Q96L92): 5.27; pKd (SYNJ2BP, P57105): 4.62; pKd (TIAM2, Q8IVF5): below the threshold; pKd (TJP3_3, O95049): below the threshold
3 | 3.52 | 3.83 | below the threshold | below the threshold | below the threshold | below the threshold | 3.59 | below the threshold | below the threshold | below the threshold | below the threshold | below the threshold | below the threshold | 3.74 | below the threshold | 3.47 | below the threshold | 3.69 | 4.46 | 3.86 | QSARYRDTEL [TJP2, Q9UDY2] | pKd (SNTG1, Q9NSN8): 3.73; pKd (SNTG2, Q9NY99): 3.84; pKd (SNX27, Q96L92): 4.69; pKd (SYNJ2BP, P57105): 5.1; pKd (TIAM2, Q8IVF5): below the threshold; pKd (TJP3_3, O95049): 3.55
